Assay results taken from the supplement of paper PMC9112550, “Optimization of the antimicrobial peptide Bac7 by deep mutational scanning” (BMC Biology, 2022).

test system: Escherichia coli TOP10; assay: shrunken log2 fold change of peptide-encoding DNA abundance (4.5 h post-induction vs induction); higher = less antimicrobial activity (less host growth inhibition); details: time post-induction: 4.5 h; library: site-saturation at positions 5, 18, 19, 20
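Also: peptides expressed intracellularly from a pBAD plasmid library in pooled LB shake-flask culture, induced with 0.3% L-arabinose, DNA abundance read by NGS, three biological replicates, DESeq2 with apeglm shrinkage.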

Row | Sequence | shrunken log2 fold change
1 | RRIRHRPPRLPRPRPRPHLYPRP | -0.24
2 | RRIRHRPPRLPRPRPRPHNHPRP | -0.577
3 | RRIRHRPPRLPRPRPRPHPDPRP | -0.206
4 | RRIRHRPPRLPRPRPRPHPHPRP | -0.19
5 | RRIRHRPPRLPRPRPRPHPNPRP | -0.063
6 | RRIRHRPPRLPRPRPRPHSHPRP | -0.41
7 | RRIRHRPPRLPRPRPRPHTFPRP | -0.386
8 | RRIRHRPPRLPRPRPRPHVSPRP | -0.0122
9 | RRIRHRPPRLPRPRPRPHYDPRP | -0.257
10 | RRIRHRPPRLPRPRPRPIAAPRP | -0.0333
11 | RRIRHRPPRLPRPRPRPIAGPRP | 0.0113
12 | RRIRHRPPRLPRPRPRPIAKPRP | 0.05
13 | RRIRHRPPRLPRPRPRPIEFPRP | -0.19
14 | RRIRHRPPRLPRPRPRPIFIPRP | -0.372
15 | RRIRHRPPRLPRPRPRPIFSPRP | -0.176
16 | RRIRHRPPRLPRPRPRPIFVPRP | -0.358
17 | RRIRHRPPRLPRPRPRPIGQPRP | -0.042
18 | RRIRHRPPRLPRPRPRPIGWPRP | 0.0927
19 | RRIRHRPPRLPRPRPRPIHQPRP | -0.441
20 | RRIRHRPPRLPRPRPRPIKKPRP | -0.06
21 | RRIRHRPPRLPRPRPRPILKPRP | -0.348
22 | RRIRHRPPRLPRPRPRPITQPRP | -0.0204
23 | RRIRHRPPRLPRPRPRPIVCPRP | -0.0297
24 | RRIRHRPPRLPRPRPRPIYFPRP | -0.123
25 | RRIRHRPPRLPRPRPRPKAGPRP | -0.115

Row | Sequence | shrunken log2 fold change
26 | RRIRHRPPRLPRPRPRPKCHPRP | -0.201
27 | RRIRHRPPRLPRPRPRPKCIPRP | -0.021
28 | RRIRHRPPRLPRPRPRPKDHPRP | -0.274
29 | RRIRHRPPRLPRPRPRPKEQPRP | -0.00965
30 | RRIRHRPPRLPRPRPRPKFNPRP | -0.437
31 | RRIRHRPPRLPRPRPRPKFTPRP | -0.219
32 | RRIRHRPPRLPRPRPRPKFYPRP | -0.148
33 | RRIRHRPPRLPRPRPRPKGTPRP | -0.0951
34 | RRIRHRPPRLPRPRPRPKHWPRP | 0.26
35 | RRIRHRPPRLPRPRPRPKKLPRP | -0.104
36 | RRIRHRPPRLPRPRPRPKKNPRP | -0.14
37 | RRIRHRPPRLPRPRPRPKLPPRP | 0.0191
38 | RRIRHRPPRLPRPRPRPKLSPRP | 0.0757
39 | RRIRHRPPRLPRPRPRPKMAPRP | -0.0953
40 | RRIRHRPPRLPRPRPRPKMEPRP | -0.00674
41 | RRIRHRPPRLPRPRPRPKNNPRP | -0.74
42 | RRIRHRPPRLPRPRPRPKNPPRP | -0.155
43 | RRIRHRPPRLPRPRPRPKPEPRP | 0.0966
44 | RRIRHRPPRLPRPRPRPKPKPRP | 0.231
45 | RRIRHRPPRLPRPRPRPKQHPRP | -0.2
46 | RRIRHRPPRLPRPRPRPKQPPRP | -0.00478
47 | RRIRHRPPRLPRPRPRPKQWPRP | 0.0913
48 | RRIRHRPPRLPRPRPRPKRGPRP | 0.0662
49 | RRIRHRPPRLPRPRPRPKRKPRP | 0.0863
50 | RRIRHRPPRLPRPRPRPKRSPRP | 0.0325

Row | Sequence | shrunken log2 fold change
51 | RRIRHRPPRLPRPRPRPKSMPRP | -0.503
52 | RRIRHRPPRLPRPRPRPKSNPRP | -0.216
53 | RRIRHRPPRLPRPRPRPKTDPRP | -0.434
54 | RRIRHRPPRLPRPRPRPKTMPRP | -0.0912
55 | RRIRHRPPRLPRPRPRPKYFPRP | -0.0202
56 | RRIRHRPPRLPRPRPRPKYMPRP | -0.746
57 | RRIRHRPPRLPRPRPRPKYPPRP | 0.0718
58 | RRIRHRPPRLPRPRPRPLALPRP | -0.563
59 | RRIRHRPPRLPRPRPRPLCPPRP | -0.138
60 | RRIRHRPPRLPRPRPRPLCYPRP | -0.737
61 | RRIRHRPPRLPRPRPRPLEDPRP | 0.0039
62 | RRIRHRPPRLPRPRPRPLEFPRP | 0.0369
63 | RRIRHRPPRLPRPRPRPLFCPRP | -0.604
64 | RRIRHRPPRLPRPRPRPLFKPRP | -0.183
65 | RRIRHRPPRLPRPRPRPLFPPRP | -0.102
66 | RRIRHRPPRLPRPRPRPLFTPRP | -0.699
67 | RRIRHRPPRLPRPRPRPLGCPRP | 0.116
68 | RRIRHRPPRLPRPRPRPLGDPRP | 0.146
69 | RRIRHRPPRLPRPRPRPLHPPRP | -0.148
70 | RRIRHRPPRLPRPRPRPLIAPRP | -0.261
71 | RRIRHRPPRLPRPRPRPLIEPRP | -0.106
72 | RRIRHRPPRLPRPRPRPLIQPRP | -0.0847
73 | RRIRHRPPRLPRPRPRPLLMPRP | -0.0151
74 | RRIRHRPPRLPRPRPRPLLYPRP | -0.528
75 | RRIRHRPPRLPRPRPRPLPLPRP | 0.0701
